Tests used:
[1] = target: human nectin-1 ectodomain (amino acids 30-335) (human) (UniProt Q15223); assay: SPR; BIAcore 3000, CM5 chip; […]) immobilised; […]; 25 C; HBS-EP (10 mM HEPES pH 7.4, 150 mM NaCl, 3 mM EDTA, 0.005% Tween 20); […]
[2] = target: swine nectin-1 ectodomain (amino acids 30-335) (swine) (UniProt Q9GL76); assay: as above
Sequence of UniProt Q9GL76 (Q9GL76 30-335): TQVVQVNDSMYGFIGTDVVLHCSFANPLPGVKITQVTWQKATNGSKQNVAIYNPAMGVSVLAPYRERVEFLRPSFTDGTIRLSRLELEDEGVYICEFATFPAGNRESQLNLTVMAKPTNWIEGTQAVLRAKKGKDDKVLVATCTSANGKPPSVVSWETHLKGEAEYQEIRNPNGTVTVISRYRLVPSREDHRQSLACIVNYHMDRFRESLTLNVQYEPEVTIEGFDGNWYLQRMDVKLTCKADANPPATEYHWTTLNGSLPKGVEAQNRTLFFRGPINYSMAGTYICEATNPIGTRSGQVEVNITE

Sequence of UniProt Q15223 (Q15223 30-335): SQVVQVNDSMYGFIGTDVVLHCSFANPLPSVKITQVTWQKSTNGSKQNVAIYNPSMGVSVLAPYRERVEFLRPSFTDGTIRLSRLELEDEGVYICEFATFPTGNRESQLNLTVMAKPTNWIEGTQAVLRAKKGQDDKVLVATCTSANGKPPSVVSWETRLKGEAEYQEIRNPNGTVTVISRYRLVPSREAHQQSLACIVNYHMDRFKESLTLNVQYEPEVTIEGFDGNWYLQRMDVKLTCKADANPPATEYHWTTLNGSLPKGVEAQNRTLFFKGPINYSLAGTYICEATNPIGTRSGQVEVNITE

Substance: PRV gD284 (pseudorabies virus glycoprotein D, residues 1-284, lacking the membrane-proximal loop) (domain or fragment)
- Kd [1]: 0.0161 µM
- koff [1]: 0.0117 s⁻¹
- kon [1]: 725000 M⁻¹ s⁻¹
- Kd [2]: 0.0184 µM
- koff [2]: 0.0211 s⁻¹
- kon [2]: 1.15e+06 M⁻¹ s⁻¹

Reference: article PMC5453625
